Experimental findings from patent publication US20210246166A1 (Bayer, published 2021) are described below.

Numbered stars: 1 amine (or outer) side, 2 acyl side, 3 side chain; on linkers, the order of the positions; unused ones are H or OH. Bridge positions count the residues as written; N and C are the ends. Square brackets hold non-standard residues; d marks the D form. Ends that are not written are not given here. Freidinger's Lactam = (2S)-2-[(3R)-3-amino-2-oxopyrrolidin-1-yl]-4-methylpentanoic acid (Freidinger's lactam), CC(C)C[C@@H](C(=O)[*:2])N1CC[C@@H](N[*:1])C1=O; X10 = (2R)‑2‑amino‑3‑(trifluoromethylsulfanyl)propanoic acid, O=C([C@H](CSC(F)(F)F)N[*:1])[*:2]; X15 = (3S)‑2‑azaspiro(4.4)nonane‑3‑carboxylic acid, O=C([C@@H]1CC2(CCCC2)CN1[*:1])[*:2]; Ida = iminodiacetic acid, O=C(CN(CC(=O)[*:3])[*:1])[*:2]; Pro(3S,4R-methano) = O=C(O)[C@H]1NC[C@@H]2C[C@@H]21; Oic = O=C(O)[C@@H]1C[C@@H]2CCCC[C@@H]2N1; βPro(3R) = O=C([C@@H]1CCN([*:1])C1)[*:2]; tBuAla = CC(C)(C)C[C@H](N)C(=O)O; Pen = CC(C)(S)[C@H](N)C(=O)O; Orn = NCCC[C@H](N)C(=O)O; Sar = CNCC(=O)O

First the molecules themselves.
B1: Example 497: ((N-Me)G)-IC+SRS-((tBu)A)-PPI-(Pen)+IP-((N-Me)G)-((N-Me)G)-((N-Me)G)-OH (peptide)
peptide: [Sar]ICSRS[tBuAla]PPI[Pen]IP[Sar][Sar][Sar]-OH
modifications: disulfide 3-11; N-terminus assumed
SMILES: CC[C@H](C)[C@H](NC(=O)CNC)C(=O)N[C@H]1CSSC(C)(C)[C@@H](C(=O)N[C@H](C(=O)N2CCC[C@H]2C(=O)N(C)CC(=O)N(C)CC(=O)N(C)CC(=O)O)[C@@H](C)CC)NC(=O)[C@H]([C@@H](C)CC)NC(=O)[C@@H]2CCCN2C(=O)[C@@H]2CCCN2C(=O)[C@H](CC(C)(C)C)NC(=O)[C@H](CO)NC(=O)[C@H](CCCNC(=N)N)NC(=O)[C@H](CO)NC1=O
B2: Example 527: ((N-Me)G)-IC+SRSLP-(Oic)-I-(Pen)+IP-(Freidinger's Lactam)-OH (peptide)
peptide: [Sar]ICSRSLP[Oic]I[Pen]IP[Freidinger's Lactam]-OH
modifications: disulfide 3-11; N-terminus assumed
SMILES: CC[C@H](C)[C@H](NC(=O)CNC)C(=O)N[C@H]1CSSC(C)(C)[C@@H](C(=O)N[C@H](C(=O)N2CCC[C@H]2C(=O)N[C@@H]2CCN([C@@H](CC(C)C)C(=O)O)C2=O)[C@@H](C)CC)NC(=O)[C@H]([C@@H](C)CC)NC(=O)[C@@H]2C[C@@H]3CCCC[C@@H]3N2C(=O)[C@@H]2CCCN2C(=O)[C@H](CC(C)C)NC(=O)[C@H](CO)NC(=O)[C@H](CCCNC(=N)N)NC(=O)[C@H](CO)NC1=O
B3: Example 528: pIC+SRSLP-(Oic)-I-(Pen)+IP-(Ida)-OH (HCl salt) (peptide)
peptide: [dP]ICSRSLP[Oic]I[Pen]IP[Ida]-OH
modifications: disulfide 3-11; also: HCl salt
B4: Example 531: ((N-Me)G)-IC+SRS-((tBu)A)-P-((3S)-2-azaspiro[4.4]nonane-3-carboxylic acid)-I-(Pen)+IPD-OH (peptide)
peptide: [Sar]ICSRS[tBuAla]P[X15]I[Pen]IPD-OH
modifications: disulfide 3-11; N-terminus assumed
SMILES: CC[C@H](C)[C@H](NC(=O)CNC)C(=O)N[C@H]1CSSC(C)(C)[C@@H](C(=O)N[C@H](C(=O)N2CCC[C@H]2C(=O)N[C@@H](CC(=O)O)C(=O)O)[C@@H](C)CC)NC(=O)[C@H]([C@@H](C)CC)NC(=O)[C@@H]2CC3(CCCC3)CN2C(=O)[C@@H]2CCCN2C(=O)[C@H](CC(C)(C)C)NC(=O)[C@H](CO)NC(=O)[C@H](CCCNC(=N)N)NC(=O)[C@H](CO)NC1=O
B5: Example 526: ((N-Me)G)-IC+SRS-((tBu)A)-P-((1S,2S,5R)-3-azabicyclo[3.1.0]hexane-2-carboxylic acid)-I-(Pen)+IPD-OH (peptide)
peptide: [Sar]ICSRS[tBuAla]P[Pro(3S,4R-methano)]I[Pen]IPD-OH
modifications: disulfide 3-11; N-terminus assumed
SMILES: CC[C@H](C)[C@H](NC(=O)CNC)C(=O)N[C@H]1CSSC(C)(C)[C@@H](C(=O)N[C@H](C(=O)N2CCC[C@H]2C(=O)N[C@@H](CC(=O)O)C(=O)O)[C@@H](C)CC)NC(=O)[C@H]([C@@H](C)CC)NC(=O)[C@@H]2[C@H]3C[C@H]3CN2C(=O)[C@@H]2CCCN2C(=O)[C@H](CC(C)(C)C)NC(=O)[C@H](CO)NC(=O)[C@H](CCCNC(=N)N)NC(=O)[C@H](CO)NC1=O
B6: Example 529: (Orn)-IC+SRS-((2R)-2-amino-3-(trifluoromethylsulfanyl)propanoic acid)-PPI-(Pen)+IPD-OH (peptide)
peptide: [Orn]ICSRS[X10]PPI[Pen]IPD-OH
modifications: disulfide 3-11; N-terminus assumed
SMILES: CC[C@H](C)[C@H](NC(=O)[C@@H](N)CCCN)C(=O)N[C@H]1CSSC(C)(C)[C@@H](C(=O)N[C@H](C(=O)N2CCC[C@H]2C(=O)N[C@@H](CC(=O)O)C(=O)O)[C@@H](C)CC)NC(=O)[C@H]([C@@H](C)CC)NC(=O)[C@@H]2CCCN2C(=O)[C@@H]2CCCN2C(=O)[C@H](CSC(F)(F)F)NC(=O)[C@H](CO)NC(=O)[C@H](CCCNC(=N)N)NC(=O)[C@H](CO)NC1=O
B7: Example 532: ((N-Me)G)-IC+SRSLP-(Oic)-I-(Pen)+IP-((R)-Pyrrolidine-3-carboxylic acid)-OH (peptide)
peptide: [Sar]ICSRSLP[Oic]I[Pen]IP[βPro(3R)]-OH
modifications: disulfide 3-11; N-terminus assumed
SMILES: CC[C@H](C)[C@H](NC(=O)CNC)C(=O)N[C@H]1CSSC(C)(C)[C@@H](C(=O)N[C@H](C(=O)N2CCC[C@H]2C(=O)N2CC[C@@H](C(=O)O)C2)[C@@H](C)CC)NC(=O)[C@H]([C@@H](C)CC)NC(=O)[C@@H]2C[C@@H]3CCCC[C@@H]3N2C(=O)[C@@H]2CCCN2C(=O)[C@H](CC(C)C)NC(=O)[C@H](CO)NC(=O)[C@H](CCCNC(=N)N)NC(=O)[C@H](CO)NC1=O

One assay deals with T1, recombinant rat MASP1 active protease (amino acids 302-704, C-terminal His Tag) (rat, UniProt Q8CHN8 302-704).
T1 sequence: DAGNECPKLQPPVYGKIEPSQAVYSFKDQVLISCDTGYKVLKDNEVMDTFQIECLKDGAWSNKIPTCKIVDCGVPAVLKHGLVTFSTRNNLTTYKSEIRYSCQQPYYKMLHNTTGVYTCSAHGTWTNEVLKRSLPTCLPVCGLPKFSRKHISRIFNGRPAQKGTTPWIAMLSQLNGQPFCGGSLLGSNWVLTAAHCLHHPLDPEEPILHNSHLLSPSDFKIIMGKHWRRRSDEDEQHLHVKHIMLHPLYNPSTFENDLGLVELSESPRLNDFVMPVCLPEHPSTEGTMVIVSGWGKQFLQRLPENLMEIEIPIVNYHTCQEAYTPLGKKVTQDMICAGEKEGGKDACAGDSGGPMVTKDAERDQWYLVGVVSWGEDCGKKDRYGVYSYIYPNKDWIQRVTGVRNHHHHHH
The assay can be described thus: cell-based or functional assay.
On to B1, for which the “rat MASP1 IC50” value amounted to 58 nM.

In the case of B2, the “rat MASP1 IC50” value came out at 240 nM.

For the molecule B3, the “rat MASP1 IC50” value was 420 nM.

Regarding B4, the “rat MASP1 IC50” value is 26 nM.

Take B5: the “rat MASP1 IC50” value is 485 nM.

With B6, the “rat MASP1 IC50” value turned out to be 730 nM.

For B7, the “rat MASP1 IC50” value amounted to 24.2 nM.

The next assay deals with recombinant rat MASP2 active protease (amino acids 296-685, C-terminal His Tag) (rat, UniProt Q9JJS8 296-685). Description: cell-based or functional assay.
Chain of recombinant rat MASP2 active protease (amino acids 296-685, C-terminal His Tag) (Q9JJS8 other isoform, or with tags, fused parts or gaps limits assumed): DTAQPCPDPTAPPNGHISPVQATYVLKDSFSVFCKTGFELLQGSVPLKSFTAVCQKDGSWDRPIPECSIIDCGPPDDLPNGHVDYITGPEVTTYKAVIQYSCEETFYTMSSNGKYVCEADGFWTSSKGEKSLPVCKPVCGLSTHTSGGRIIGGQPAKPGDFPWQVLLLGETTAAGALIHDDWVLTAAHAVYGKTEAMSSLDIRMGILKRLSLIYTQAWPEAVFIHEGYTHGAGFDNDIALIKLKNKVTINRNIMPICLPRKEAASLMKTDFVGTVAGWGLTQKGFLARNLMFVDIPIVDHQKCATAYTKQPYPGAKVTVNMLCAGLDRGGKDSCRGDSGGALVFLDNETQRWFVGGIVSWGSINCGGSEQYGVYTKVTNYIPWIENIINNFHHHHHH
B1: the “rat MASP2 IC50” value is 39 nM.

Turning to B2, the “rat MASP2 IC50” value turned out to be 42 nM.

With B3, the “rat MASP2 IC50” value is 8.2 nM.

For B4, the “rat MASP2 IC50” value was found to be 74.1 nM.

For the molecule B5, the “rat MASP2 IC50” value came out at 253 nM.

For B6, the “rat MASP2 IC50” value was 100 nM.

In the case of B7, the “rat MASP2 IC50” value was found to be 17.6 nM.
